Assay results as given in the Human Domainome abundance scans (Beltran et al. 2025).

B1: Connector enhancer of kinase suppressor of ras 2, residues 9 to 71; numbered along this chain, Q8WXI2 (parent)
chain: SKWSPSQVVDWMKGLDDCLQQYIKNFEREKISGDQLLRITHQELEDLGVSRIGHQELILEAVD
B2: Homeobox protein cut-like 1, residues 941 to 1008; numbered along this chain, P39880 (parent)
chain: QEVDTIELTRQVKEKLAKNGICQRIFGEKVLGLSQGSVSDMLSRPKPWSKLTQKGREPFIRMQLWLNG

Variants of: B1
Test: abundance fitness (aPCA) (normalised: wild type 0, dead -1); higher = more abundant; growth selection in yeast, the domain comes from the species named
Details: Homo sapiens

Abundance fitness: each site, then its substitutions
D46: A -0.054; E -0.013; T -0.041; Y -0.194; P -0.813; M -0.042; R 0.027; W -0.192; S -0.037; Q -0.032; K 0.072; V -0.11; G -0.075; C -0.188; F -0.097; I -0.178; N -0.006; H 0.008
L47: R -0.688; A -0.681; G -0.857; P -0.762; W -0.622; N -0.783; S -0.813; M -0.083; I 0.003; H -0.785; D -0.857; Y -0.72; F -0.612; T -0.805; V -0.423; E -0.795; Q -0.838; C -0.592
D63: W -0.311; R 0.108; H 0; N -0.024; A -0.001; T -0.055; Y -0.096; E -0.012; C -0.025; K -0.059; I -0.274; Q -0.039; G 0.041; L -0.176; P -0.792; F -0.233
E56: W -0.362; T -0.077; K 0.041; D -0.011; A -0.138; P -0.728; S -0.17; I -0.102; C -0.176; M -0.157; R -0.009; V -0.161; L -0.158; H -0.121; G -0.307; Y -0.333; N -0.046
R51: C 0.082; L -0.015; P -0.021; V 0.061; N 0.063; A 0.031; M -0.042; T 0.063; W -0.115; E 0.088; S 0.088; Q 0.071; G -0.083; F 0.006; I 0.03; D 0.081; H 0.018
V49: I -0.088; K -0.925; P -0.875; A -0.833; E -0.903; L -0.621; D -0.777; Q -0.846; Y -1.07; F -0.866; W -0.866; N -1.1; T -0.857; C -0.374; H -0.926
E43: Y -0.472; W -0.498; V -0.257; T -0.151
I58: N -0.851; P -0.671; G -0.945; L -0.096; F -0.033; A -0.799; W -0.734; K -0.727; H -0.268; Y -1.35; E -0.584; T -0.688; Q -0.696; S -0.714; R -0.811; V -0.374
I52: G -0.074; Y -0.067; N -0.139; A -0.011; K 0.048; R 0.065; M -0.086; W -0.174; P 0.038; V 0.002; H -0.047; D -0.123; F -0.071; T 0.017; E -0.058
S50: G -0.258; M -0.09; A -0.125; Y -0.05; L -0.072; H 0.239; K 0.278; D -0.172; N -0.471; T 0.039; I -0.571; R -0.05; P -0.391; C -0.068; E 0.024; F -0.139
G48: H -0.813; M -0.871; P -0.704; A -0.844; S -0.66; L -0.991; W -1.07; C -0.698; N -0.66; T -0.865; K -0.552; I -1.29; D -0.64; V -1.01; E -0.692
L44: T -0.781; Y -0.9; E -0.82; A -0.814; I -0.982; M -0.399; P -0.821; F -0.722; G -0.804; D -0.657; V -0.79; K -0.791; Q -0.932; N -0.87; S -0.784; H -0.914; R -0.753; W -0.964
E45: W -0.193; R -0.017; V -0.118; P -0.784; D -0.167; H -0.04; G -0.12; Q -0.007; L -0.045; I -0.076; S -0.017; T -0.034; N -0.015; K 0.021; C -0.018; M -0.066; F -0.033
E60: N -0.012; V -0.439; S -0.004; C -0.187; Q 0.006; P -0.905; I -0.531; M -0.226; W -0.664; H -0.111; D -0.012; R -0.072; F -0.615; T -0.057; Y -0.514; G -0.096
G53: R 0.046; F -0.079; C -0.05; Q 0.061; T 0.042; N 0.084; K 0.077; D 0.086; H -0.015; M -0.009; A 0.037; W -0.151; E 0.085
H54: Y -0.863; T -0.874; G -0.887; F -0.886; N -0.65; C -0.835; K -0.843; V -0.982; E -0.412; A -0.727; W -1.27; Q -0.944; S -0.766; M -0.819; R -0.793; I -1.15
L57: R -0.202; H -0.482; F -0.553; T -0.448; K 0.021; C -0.394; S -0.298; E -0.446; N -0.533; Q -0.213; W -0.987; A -0.105; I -0.242; M 0.035; P -0.831; D -0.677; Y -0.53; V -0.439; G -0.635
Q55: S -0.57; T -0.598; K -0.051; I -0.281; W -1.14; N -1.01; Y -1.02; R 0.061; A -0.296; P -0.654; L -0.948; D -0.978; H -0.861; E -0.954; C -0.403; V -0.319
L59: S -0.652; F -0.358; W -0.758; T -0.607; H -0.657; D -0.594; P -0.608; R -0.363; C -0.557; N -0.741; Y -0.61; G -0.674; I -0.241; Q -0.646; M -0.032; K -0.232; V -0.552; E -0.672; A -0.653
V62: L -0.258; T -0.58; D -0.822; M -0.552; F -0.921; E -0.63; Y -1.02; G -0.802; K -0.392; S -0.741; P -0.779; Q -0.789; A -0.335; I -0.047; N -0.815; R -0.061; C -0.411; W -0.909; H -1.04

Variants of: B2
Test: as above
Details: Homo sapiens

Abundance fitness, by site and new letter:
Q1: T -0.038; P -0.277; C -0.062; E 0.214; N -0.412; M 0.09; H -0.673; L -0.218; F -0.088; G 0.06; A 0.167; S 0.045; K 0.076; R -0.046
